These results are taken from article PMC7870846, “Incorporation of sensing modalities into de novo designed fluorescence-activating proteins” (Nature Communications, 2021).

The nature of test [1]: In vitro chromophore titration with DFHBI (fluorescence, single-binding site isotherm fit). As for the experimental part:
Fluorescence endpoints were measured on a Synergy Neo2 hybrid multi-mode reader (BioTek) in flat bottom, black polystyrene, non-binding surface 96-well microplates (Corning 3650). In measuring chromophore-binding affinities (Fig. 1d, e), mFAP2, mFAP2a, and mFAP2b, and mFAP10 were produced by large-scale protein purification and SEC purification. Proteins were aliquoted in eight technical replicates in 200 μL final volumes to 20.0 nM final concentration in ten serial dilutions ( 10 dilution factor) of DFHBI starting from 31.6 μM DFHBI or 31.6 μM DFHBI-1T final concentrations, including an eleventh condition without chromophore. Fluorescence was excited at λex = 468 nm and fluorescence emission measured at λem = 530 nm. Background fluorescence endpoints of wells with identical chromophore concentrations but purified protein replaced with an identical volume of high-salt Tev cleavage buffer were measured, and fluorescence endpoints subtracted from those measured with protein. Background-subtracted data were averaged and the means normalized from 0 to 1 and fit to a single-binding site isotherm function using non-linear least squares fitting to obtain a fitted Kd value (Table 1), and the fit scaled to the maximum mean value (Fig. 1d, e).

A short description of test [2]: Fluorescence intensity assays of mFAP variants. Type of test: biochemical. To be noted: neutral pH, DFHBI. The protocol:
To measure fluorescence intensities of the phenolate form of chromophores, fluorescence was measured on a Synergy Neo2 hybrid multi-mode reader (BioTek) in flat bottom, black polystyrene, non-binding surface 96-well microplates (Corning 3650). Fluorescence intensity was measured in triplicate by exciting at λex = 484 nm and measuring fluorescence emission at λem = 505 nm (or λem = 511 nm for clones harboring the W27 mutation) (Supplementary Fig. 1g, h). The W27 mutation redshifts the peak emission wavelength from λem = ~505 nm to λem = ~511 nm, presumably due to the W27 indole ring donating a hydrogen bond to the imidazolinone moiety of the deprotonated state of DFHBI, which stabilizes the chromophore conjugated π–electron system in the excited state causing the redshift in emission. Fifteen microliters of small-scale purified protein[49] was combined with 185 μL of Na2HPO4-citrate (pH 7.36) buffer supplemented with 150 mM NaCl and 108 nM DFHBI for a final concentration of 100 nM DFHBI. In measuring the excitation spectra from λem = 525 nm of each clone in triplicate (Supplementary Fig. 1i), 30.0 μL of large-scale purified protein[49] was combined with 170 μL of 25.0 mM Tris (pH 8.00) supplemented with 100 mM NaCl and 914 nM DFHBI for a final concentration of 7.77 μM protein and 777 nM DFHBI. In measuring the fluorescence intensity at λex = 484 nm and λem = 509 nm of each clone in triplicate (Supplementary Fig. 1j), 30.0 μL of large-scale purified protein[49] was combined with 170 μL of 25.0 mM Tris (pH 8.00) supplemented with 100 mM NaCl and 653 nM DFHBI for a final concentration of 5.55 μM protein and 555 nM DFHBI. In measuring fluorescence intensity at λex = 468 nm and λem = 530 nm of each clone in technical triplicate (Supplementary Fig. 1k), 24.0 μL of 35.4 µM large-scale purified protein[49] was combined with 1.00 μL of 1.25 µM DFHBI or 1.00 μL of 1.25 µM DFHBI-1T (Lucerna) (from […] chromophore stock solutions dissolved in 0.5% DMSO and 99.5% high-salt Tev cleavage buffer [25.0 mM Tris, 100 mM NaCl, pH 8.00]) for final concentrations of 34.0 μM protein and 50.0 nM chromophore. The mFAP9–DFHBI complex had ~1.1-fold the fluorescence intensity of the mFAP10–DFHBI complex, and the mFAP9–DFHBI-1T complex had ~0.75-fold the fluorescence intensity of the mFAP10–DFHBI-1T complex (Supplementary Fig. 1k). In collecting fluorescence emission spectra by exciting fluorescence at λex = 484 nm and collecting fluorescence emission at λem = 495–650 nm (Supplementary Fig. 6b), and in measuring fluorescence endpoints in techincal triplicate at unique peak excitation and emission wavelengths (Supplementary Fig. 6c), 195 μL of large-scale purified protein[49] was combined with 5.00 μL of 25 mM Tris (pH 8.00) supplemented with 100 mM NaCl and 40.0 μM DFHBI for a final concentration of 10.0 μM protein and 1.00 μM DFHBI.
In measuring fluorescence intensity of small-scale purified proteins[49] (Supplementary Table 1), wells were excited at λex = 488 nm for DFHBI and DFHBI-1T and λex = 505 nm for DFHO, and fluorescence emission measured at λem = 510 nm for DFHBI and DFHBI-1T and λem = 545 nm for DFHO. […]

B1: mFAP2b: mFAP2.5 with V67I, "b" for bright (protein)
chain: SRAAQLLPGTWQVTMTNEDGQTSQGQWHFQPRSPYTMDIVAQGTISDGRPIVGYGKATVKTPDTLDIDITYPSLGNIKAQGQITMDSPTQFKWDATTKGENDFHGRLTGTLQRQE
For B1, in test [1], the “higher affinity for DFHBI than DFHBI-1T” value is on record as ~ 6.1 fold and the “weaker affinity for DFHBI than the initial mFAP2 design” value is given as ~ 10 fold. Also, in test [2], the “brighter than mFAP2.4” value is listed as ~ 1.3 fold and the “brighter than mFAP2.5” value is on record as ~ 1.2 fold.
